Data on one substance can be found in patent US20260116982A1.

The target of this experiment is CD1a antigen on CD1a+ T-ALL cells (Jurkat, MOLT4, primary cortical T-ALL blasts) and cortical thymocytes (human) (UniProt P06126). Nature of the experiment: cell-based or functional assay.

For the substance “CD1a CAR (second-generation chimeric antigen receptor with the anti-CD1a scFv derived from clone NA1/34.HLK, CD8 TM spacer, 4-1BB (CD137) and CD3ζ signaling domains), expressed on T cells”, the specific cell lysis of CD1a+ T-ALL cell lines (Jurkat, MOLT4), 16 h assay, E:T 2:1 or 4:1 lay within 50 to 80%.
